Reference: paper PMC11961692
Substitutions are numbered along the chain they refer to. Like-named read-outs stand apart in the source and are kept apart here.

Tests used:
hEndoU WT [1] = target: T1, hEndoU WT (Homo sapiens, UniProt P21128 135-410); assay: NMR
T1 sequence: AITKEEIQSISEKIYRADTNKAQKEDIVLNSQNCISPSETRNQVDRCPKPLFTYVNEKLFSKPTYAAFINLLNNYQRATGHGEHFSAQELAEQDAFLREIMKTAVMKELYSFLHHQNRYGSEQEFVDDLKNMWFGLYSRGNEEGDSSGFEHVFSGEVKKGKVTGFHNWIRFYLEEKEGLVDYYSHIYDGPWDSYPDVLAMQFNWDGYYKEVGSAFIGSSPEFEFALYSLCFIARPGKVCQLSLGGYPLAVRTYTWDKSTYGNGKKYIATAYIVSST

hEndoU E284A = target: T2, hEndoU E284A (Homo sapiens, UniProt P21128 135-410, E284A); assay: EMSA
T2 sequence: T1 sequence with E150A

hEndoU H285A/R385K = target: T3, hEndoU H285A/R385K (Homo sapiens, UniProt P21128 135-410, H285A;R385K); assay: EMSA
T3 sequence: T1 sequence with H151A, R251K

hEndoU H285A = target: T4, hEndoU H285A (Homo sapiens, UniProt P21128 135-410, H285A); assay: EMSA
T4 sequence: T1 sequence with H151A

hEndoU H285A/R385A = target: T5, hEndoU H285A/R385A (Homo sapiens, UniProt P21128 135-410, H285A;R385A); assay: EMSA
T5 sequence: T1 sequence with H151A, R251A

hEndoU WT [2] = target: T1, hEndoU WT; assay: NMR; remark: listed apart in the source

B1: 2'-F (U)6 (XNA)
RNA: UUUUUU
modifications: 2'-F at all nucleotides
binding result (hEndoU WT [1]): binds

B2: single-uridylate RNA (ssRNA)
RNA: CACGAGUACCAGAAAACCAAAA
binding result (hEndoU E284A): binds | binding result (hEndoU H285A/R385K): binds | binding result (hEndoU H285A): binds | binding result (hEndoU H285A/R385A): binds

B3: 2'-F RNA AAGUCC (XNA)
RNA: AAGUCC
modifications: 2'-F at all nucleotides
binding result (hEndoU WT [2]): binds
